Data taken from patent US20050256058A1.
Square brackets hold non-standard residues; d marks the D form. * marks the point of attachment. Hydrocinnamoyl = O=C(CCc1ccccc1)*; CH:CH‑COOEt = CCOC(=O)/C=C/*; AOrn = not defined here; Cbz = O=C(OCc1ccccc1)*

T1: Clostripain, P09870
T1 chain: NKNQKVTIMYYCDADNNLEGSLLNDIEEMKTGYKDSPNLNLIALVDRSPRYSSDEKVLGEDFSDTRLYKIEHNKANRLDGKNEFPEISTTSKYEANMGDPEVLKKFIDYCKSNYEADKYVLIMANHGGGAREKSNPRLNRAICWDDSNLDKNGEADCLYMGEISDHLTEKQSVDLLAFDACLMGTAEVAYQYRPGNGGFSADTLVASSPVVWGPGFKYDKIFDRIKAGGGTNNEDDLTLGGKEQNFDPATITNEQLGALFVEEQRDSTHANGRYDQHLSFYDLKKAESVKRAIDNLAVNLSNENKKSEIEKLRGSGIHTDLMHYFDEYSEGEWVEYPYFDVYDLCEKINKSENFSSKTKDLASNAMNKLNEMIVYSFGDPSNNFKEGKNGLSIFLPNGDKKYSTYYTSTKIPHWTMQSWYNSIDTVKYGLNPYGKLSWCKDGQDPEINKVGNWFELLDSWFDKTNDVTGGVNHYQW

T2: schistosome legumain SmAE (Schistosoma mansoni asparaginyl endopeptidase) (Schistosoma mansoni), P09841
T2 chain: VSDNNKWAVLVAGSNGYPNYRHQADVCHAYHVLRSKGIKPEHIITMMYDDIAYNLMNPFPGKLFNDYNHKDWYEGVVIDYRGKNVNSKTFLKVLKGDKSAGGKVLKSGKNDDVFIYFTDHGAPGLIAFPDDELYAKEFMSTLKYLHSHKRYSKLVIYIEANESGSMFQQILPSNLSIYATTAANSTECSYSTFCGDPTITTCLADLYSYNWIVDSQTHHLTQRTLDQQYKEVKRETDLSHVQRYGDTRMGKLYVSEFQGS


Target: T1, Clostripain, P09870
Assay: cell-based or functional assay

Row | k2 [M⁻¹ s⁻¹] | Binder
1 | 788 | Hydrocinnamoyl-Leu-[AOrn]-{CH:CH‑COOEt} (reading uncertain; also: printed as PhPr-Leu-AOrn-CH═CH-COOEt) [PhPr-Leu-AOrn-CH═CH-COOEt]
2 | 20000 | LK (modifications not checked) [PhPr-Leu-ALys-CH═CH-CON(CH2Ph)2]
3 | 40800 | LK (modifications not checked) [PhPr-Leu-ALys-CH═CH-COOEt]
4 | 474000 | LR (modifications not checked) [PhPr-Leu-AArg-CH═CH-CON(CH2Ph)2]
5 | 6000 | LK (modifications not checked) [PhPr-Leu-ALys-CH═CH-CON(Me)CH2Ph]
6 | 13800 | LK (modifications not checked) [PhPr-Leu-ALys-CH═CH-CON(Bzl)-p-CH2C6H4F]
7 | 20500 | LK (modifications not checked) [PhPr-Leu-ALys-CH═CH-COOCH2Ph]
8 | 17500 | LK (modifications not checked) [PhPr-Leu-ALys-CH═CH-CON(Bzl)CH2-2-naphthyl]
9 | 1050 | LK (modifications not checked) [PhPr-Leu-ALys-CH═CH-CONHCH2Ph]
10 | 287000 | LR (modifications not checked) [PhPr-Leu-AArg-CH═CH-CONHCH2Ph]
11 | 326 | LK (modifications not checked) [PhPr-Leu-ALys-CH═CH-CON(4H-quinoline)]
12 | 2250 | LK (modifications not checked) [PhPr-Leu-ALys-CH═CH-CON(CH2-1-naphthyl2]
13 | 639 | LK (modifications not checked) [PhPr-Leu-ALys-CH═CH-CON(Me)CH2-1-naphthyl]
14 | 69600 | LR (modifications not checked) [PhPr-Leu-AArg-CH═CH-COOEt]
15 | 541 | Hydrocinnamoyl-Leu-[AOrn]-{CH:CH‑CON(CH2Ph)2} (reading uncertain) [PhPr-Leu-AOrn-CH═CH-CON(CH2Ph)2]

target: Gingipain K; assay: cell-based or functional assay

Row | k2 [M⁻¹ s⁻¹] | Binder
16 | 927000 | Hydrocinnamoyl-Leu-[AOrn]-{CH:CH‑COOEt} (reading uncertain; also: printed as PhPr-Leu-AOrn-CH═CH-COOEt) [PhPr-Leu-AOrn-CH═CH-COOEt]
17 | 2.13e+06 | LK (modifications not checked) [PhPr-Leu-ALys-CH═CH-CON(CH2Ph)2]
18 | 3.28e+06 | LK (modifications not checked) [PhPr-Leu-ALys-CH═CH-COOEt]
19 | 1.36e+06 | LK (modifications not checked) [PhPr-Leu-ALys-CH═CH-CON(Me)CH2Ph]
20 | 801000 | LK (modifications not checked) [PhPr-Leu-ALys-CH═CH-CON(Bzl)-p-CH2C6H4F]
21 | 2.51e+06 | LK (modifications not checked) [PhPr-Leu-ALys-CH═CH-COOCH2Ph]
22 | 24700 | Hydrocinnamoyl-Leu-[AOrn]-{CH:CH‑CONHCH2Ph} (reading uncertain) [PhPr-Leu-AOrn-CH═CH-CONHCH2Ph]
23 | 811000 | LK (modifications not checked) [PhPr-Leu-ALys-CH═CH-CON(Bzl)CH2-2-naphthyl]
24 | 236000 | LK (modifications not checked) [PhPr-Leu-ALys-CH═CH-CONHCH2Ph]
25 | 252000 | LK (modifications not checked) [PhPr-Leu-ALys-CH═CH-CON(4H-quinoline)]
26 | 632000 | Hydrocinnamoyl-Ala-[AOrn]-{CH:CH‑COOEt} (reading uncertain) [PhPr-Ala-AOrn-CH═CH-COOEt]
27 | 1.89e+06 | LK (modifications not checked) [PhPr-Leu-ALys-CH═CH-CON(CH2-1-naphthyl2]
28 | 975000 | LK (modifications not checked) [PhPr-Leu-ALys-CH═CH-CON(Me)CH2-1-naphthyl]
29 | 1580 | LR (modifications not checked) [PhPr-Leu-AArg-CH═CH-COOEt]
30 | 61600 | Hydrocinnamoyl-Leu-[AOrn]-{CH:CH‑CON(CH2Ph)2} (reading uncertain) [PhPr-Leu-AOrn-CH═CH-CON(CH2Ph)2]

target: Gingipain R; assay: cell-based or functional assay

Row | k2 [M⁻¹ s⁻¹] | Binder
31 | 32 | Hydrocinnamoyl-Leu-[AOrn]-{CH:CH‑COOEt} (reading uncertain; also: printed as PhPr-Leu-AOrn-CH═CH-COOEt) [PhPr-Leu-AOrn-CH═CH-COOEt]
32 | 65 | LK (modifications not checked) [PhPr-Leu-ALys-CH═CH-CON(CH2Ph)2]
33 | 289 | LK (modifications not checked) [PhPr-Leu-ALys-CH═CH-COOEt]
34 | 804000 | LR (modifications not checked) [PhPr-Leu-AArg-CH═CH-CON(CH2Ph)2]
35 | 79 | LK (modifications not checked) [PhPr-Leu-ALys-CH═CH-CON(Me)CH2Ph]
36 | 75 | LK (modifications not checked) [PhPr-Leu-ALys-CH═CH-CON(Bzl)-p-CH2C6H4F]
37 | 632 | LK (modifications not checked) [PhPr-Leu-ALys-CH═CH-COOCH2Ph]
38 | 71 | Hydrocinnamoyl-Leu-[AOrn]-{CH:CH‑CONHCH2Ph} (reading uncertain) [PhPr-Leu-AOrn-CH═CH-CONHCH2Ph]
39 | 98 | LK (modifications not checked) [PhPr-Leu-ALys-CH═CH-CON(Bzl)CH2-2-naphthyl]
40 | 20 | LK (modifications not checked) [PhPr-Leu-ALys-CH═CH-CONHCH2Ph]
41 | 555000 | LR (modifications not checked) [PhPr-Leu-AArg-CH═CH-CONHCH2Ph]
42 | 73 | LK (modifications not checked) [PhPr-Leu-ALys-CH═CH-CON(4H-quinoline)]
43 | 18 | Hydrocinnamoyl-Ala-[AOrn]-{CH:CH‑COOEt} (reading uncertain) [PhPr-Ala-AOrn-CH═CH-COOEt]
44 | 214 | LK (modifications not checked) [PhPr-Leu-ALys-CH═CH-CON(CH2-1-naphthyl2]
45 | 576 | LK (modifications not checked) [PhPr-Leu-ALys-CH═CH-CON(Me)CH2-1-naphthyl]
46 | 541 | Hydrocinnamoyl-Leu-[AOrn]-{CH:CH‑CON(CH2Ph)2} (reading uncertain) [PhPr-Leu-AOrn-CH═CH-CON(CH2Ph)2]

Target: T2, schistosome legumain SmAE (Schistosoma …)
Assay: cell-based or functional assay

Row | Binder | IC50 [nM]
47 | AAN (modifications not checked) [Cbz-Ala-Ala-AAsn-CH═CH-CON(CH3)CH2CH2Ph] | 600
48 | AAN (modifications not checked) [Cbz-Ala-Ala-AAsn-CH═CH-CO-Pip] | 1000
49 | AAN (modifications not checked) [Cbz-Ala-Ala-AAsn-CH═CH-CON(CH3)Ph] | 60
50 | AAN (modifications not checked) [Cbz-Ala-Ala-AAsn-CH═CH-CO-isoindoline] | 300
51 | AAN (modifications not checked) [Cbz-Ala-Ala-AAsn-CH═CH-CO-MePhe-N(CH3)CH2CH2Ph] | 750
52 | AAN (modifications not checked) [Cbz-Ala-Ala-AAsn-CH═CH-CO-tetrahydroquinoline] | 70
53 | AAN (modifications not checked) [Cbz-Ala-Ala-AAsn-CH═CH-CO-tetrahydroisoquinoline] | 200
54 | Cbz-Ala-Ala-[AAsn]-{CH:CH‑CON(Bzl)‑1‑CH2‑Napth} [Cbz-Ala-Ala-AAsn-CH═CH-CON(Bzl)-1-CH2-Napth] | 62
55 | Cbz-Ala-Ala-[AAsn]-{CH:CH‑CON(CH3)Bzl} [Cbz-Ala-Ala-AAsn-CH═CH-CON(CH3)Bzl] | 55
56 | AAN (modifications not checked) [Cbz-Ala-Ala-AAsn-CH═CH-CON(Bzl-4-OMe)Bzl] | 90
57 | AAN (modifications not checked) [Cbz-Ala-Ala-AAsn-CH═CH-2-furyl] | > 2000
58 | AAN (modifications not checked) [Cbz-Ala-Ala-AAsn-CH═CH-CON(nBu)2] | 550
59 | Cbz-Ala-Ala-[AAsn]-{CH:CH‑CON(Bzl)2} [Cbz-Ala-Ala-AAsn-CH═CH-CON(Bzl)2] | 45
60 | AAN (modifications not checked) [Cbz-Ala-Ala-AAsn-CH═CH-CON(CH2-2-furyl)2] | 900
61 | AAN (modifications not checked) [Cbz-Ala-Ala-AAsn-CH═CH-CONHBzl] | 1000
62 | Cbz-Ala-Ala-[AAsn]-{CH:CH‑CON(Bzl)‑2‑CH2‑Napth} [Cbz-Ala-Ala-AAsn-CH═CH-CON(Bzl)-2-CH2-Napth] | 70
63 | AAN (modifications not checked) [Biotinyl-Ala-Ala-AAsn-CH═CH-COOEt] | 10
64 | AAN (modifications not checked) [Cbz-Ala-Ala-AAsn-CH═CH-CO-(4-Ph-Py)] | 750
65 | AAN (modifications not checked) [Cbz-Ala-Ala-AAsn-CH═CH-CONH-Bzl-4-F] | 800
66 | AAN (modifications not checked) [Cbz-Ala-Ala-AAsn-CH═CH-CON(Bzl)Ph] | 70
67 | AAN (modifications not checked) [Cbz-Ala-Ala-AAsn-CH═CH-CON(Bzl-4-F)Bzl] | 60
68 | Cbz-Ala-Ala-[AAsn]-{CH:CH‑CO‑indoline} [Cbz-Ala-Ala-AAsn-CH═CH-CO-indoline] | 70
69 | AAN (modifications not checked) [Cbz-Ala-Ala-AAsn-CH═CH-3-Py] | > 2000

Second part, the binder after the results:

Row | IC50 [nM] | Binder
70 | 600 | Cbz-Ala-Ala-[AAsn]-{CH:CH‑CONHCH2CH2Ph} [Cbz-Ala-Ala-AAsn-CH═CH-CONHCH2CH2Ph]
71 | 700 | AAN (modifications not checked) [Cbz-Ala-Ala-AAsn-CH═CH-CONHPh]
72 | 38 | AAN (modifications not checked) [Cbz-Ala-Ala-AAsn-CH═CH-COOBzl]
73 | 31 | Cbz-Ala-Ala-[AAsn]-{CH:CH‑COOEt} [Cbz-Ala-Ala-AAsn-CH═CH-COOEt]
